Laboratory results taken from the Immune Epitope Database (IEDB).

Assays:
Test in all cases: IEDB peptide-MHC binding, purified MHC/competitive/fluorescence; filed as Kd, often an IC50 or EC50 that approximates it; ≥ and ≤ were set here for values at or beyond the usual limits of such assays
Settings in all cases: source organism: Salmonella enterica subsp. enterica serovar Typhi
HLA-A*02:01 = target: HLA-A*02:01
HLA-A*03:19 = target: HLA-A*03:19
HLA-A*32:07 = target: HLA-A*32:07
HLA-A*32:15 = target: HLA-A*32:15
HLA-A*68:23 = target: HLA-A*68:23
HLA-B*15:01 = target: HLA-B*15:01
HLA-B*15:42 = target: HLA-B*15:42
HLA-B*40:13 = target: HLA-B*40:13
HLA-B*45:06 = target: HLA-B*45:06
HLA-B*51:01 = target: HLA-B*51:01
HLA-B*58:01 = target: HLA-B*58:01
HLA-C*04:01 = target: HLA-C*04:01
HLA-C*06:02 = target: HLA-C*06:02

MTMLTRWKI
Kd (HLA-A*02:01): 0.222 µM
Kd (HLA-A*03:19): 3.51 µM
Kd (HLA-A*32:07): 0.0772 µM
Kd (HLA-A*32:15): 0.0478 µM
Kd (HLA-A*68:23): 0.0003 µM
Kd (HLA-B*15:01): ≥ 20 µM
Kd (HLA-B*15:42): ≥ 5 µM
Kd (HLA-B*40:13): 0.365 µM
Kd (HLA-B*45:06): ≥ 5 µM
Kd (HLA-B*51:01): ≥ 20 µM
Kd (HLA-B*58:01): 0.005 µM
Kd (HLA-C*04:01): ≥ 5 µM
Kd (HLA-C*06:02): 0.641 µM
